B1: PYR1*^MANDI, pBD two-hybrid fusion [not stated] / HAB1*, pACT two-hybrid fusion [not stated] (parent)
chain 1: MPSELTPEERSELKNSIAEFHTYQLDPGSCSSLHAQRIHAPPELVWSIVRRFDKPQTHRHFIKSCSVEQNFEMRVGCTRDIIVISGLPANTSTERLDILDDERRVTGASIIGGEHRLTNYKGVTTVHRFEKENRIWTVVLESYVVDMPEGNSEDDTRIVVDDVVKLNLQKLATVAEAMARNSGDGSGSQVT
chain 2: MEEMTPAVAMTLSLAANTMCESSPVEITQLKNVTDAADLLSDSENQSFCNGGTECTMEDVSELEEVGEQDLLKTLSDTRSGSSNVFDEDDVLSVVEDNSAVISEGLLVVDAGSELSLSNTAMEIDNGRVLATAIIVGESSIEQVPTAEVLIAGVNQDTNTSEVVIRLPDENSNHLVKGRSVYELDCIPLWGTVSIQGNASEMEAAFAVSPHFLKLPIKMLMGDHEGMSPSLTHLTGHFFGVYDGHGGHKVADYCRDRLHFALAEEIERIKDELCKRNTGEGRQVQWDKVFTSCFLTVDGEIEGKIGRAVVGSSDKVLEAVADETVGSTAVVALVCSSHIVVSNCGDSRAVLFRGKEAMPLSVDHKPDREDEYARIENAGGKVIQWQGARVFGRLAMSRSIGDRYLKPYVIPEPEVTFMPRSREDECLILASDGLWDVMNNQEVCEIARRRILMWHKKNGAPPLAERGKGIDPACQAAADYLSMLALQKGSKDNISIIVIDLKAQAKFKTRT

Variants of: B1
Assay: β-gal-based Y2H assay
Conditions: with HAB1*, ligand: malathion

Row | Variant | screen value [µM]
1 | chain 1 MPSELTPEERSELKNSIAEFHTYQLDPGSCSSLHAQRIHAPPELVWSIVRRFDKPQTHRHFIKSCSVEQNFEMRVGCTRDIIAISGLPANTSTERLDILDDERRVTGASIIGGEHRLTNYKGVTTVHRFEKENRIWTVVLESYVVDMPEGNSEDDTRIVVDDVVKLNLQKLATVAEAMARNSGDGSGSQVT [chain 1 V83A] | 100

Same assay, conditions: with HAB1*, ligand: azinphos-ethyl

Row | Variant | screen value [µM]
2 | chain 1 MPSELTPEERSELKNSIAEFHTYQLDPGSCSSLHAQRIHAPPELVWSIVRRFDKPQTHRHFIKSCSVEQNFEMRVGCTRDIIWISGLPANTSTERLDILDDERRVTGASYIGGEHSLTNYKGVTTVHRFEKENRIWTVVLESYVVDMPEGNSEDDTRIVVDDVYKLNLQKLATVAEAMARNSGDGSGSQVT [chain 1 V83W I110Y R116S V164Y] | 0.01
3 | chain 1 MPSELTPEERSELKNSIAEFHTYQLDPGSCSSLHAQRIHAPPELVWSIVRRFDKPQTHRHFIKSCSVEQNFEMRVGCTRDIIWISGLPANTSTERLDILDDERRVTGASIIGGEHSLTNYKGVTTVHRFEKENRIWTVVLESYVVDMPEGNSEDDTRIVVDDVVKLNLQKLATVAEAMARNSGDGSGSQVT [chain 1 V83W R116S] | 0.01
4 | chain 1 MPSELTPEERSELKNSIAEFHTYQLDPGSCSSLHAQRIHAPPELVWSIVRRFDKPQTHRHFIKSCSVEQNFEMRVGCTRDIIWISGLPANTSTERLDILDDERRVTGASYIGGEHSLTNYKGVTTVHRFEKENRIWTVVLESYVVDMPEGNSEDDTRIVVDDVVKLNLQKLATVAEAMARNSGDGSGSQVT [chain 1 V83W I110Y R116S] | 0.25

Same assay, conditions: with HAB1*, ligand: diazinon

Row | Variant | screen value [µM]
5 | chain 1 MPSELTPEERSELKNSIAEFHTYQLDPGSCSSLHAQRIHAPPELVWSIVRRFDKPQTHRHFIKSCSVEQNFEMRVGCTRDIIVISGLPANTSTERLDILDDERRVTGVSIIGGEHRLTNYKGVTTVHRFEKENRIWTVVLESYVVDMPEGNSEDDTRIVVDDVVKLNLQKLATVAEAMARNSGDGSGSQVT [chain 1 A108V] | 100

Same assay, conditions: with HAB1*, ligand: azinphos

Row | Variant | screen value [µM]
6 | chain 1 MPSELTPEERSELKNSIAEFHTYQLDPGSCSSLHAQRIHAPPELVWSIVRRFDKPQTHRHFIKSCSVEQNFEMRVGCTRDIIWISGLPANTSTERLDILDDERRVTGASIIGGEHSLTNYKGVTTVHRFEKENRIWTVVLESYVVDMPEGNSEDDTRIVVDDVVKLNLQKLATVAEAMARNSGDGSGSQVT [chain 1 V83W R116S] | 10

Same assay, conditions: with HAB1*, ligand: pirimiphos

Row | Variant | screen value [µM]
7 | chain 1 MPSELTPEERSELKNSIAEFHTYQLDPGSCSSLHAQRIHAPPELVWSIVRRFDKPQTHRHFIKSCSVEQNFEMRVGCTRDIIVISGLPANTMTERLDILDDERRVTGASIIGGEHRLTNYKGVTTVHRFEKENRIWTVVLESYVVDMPEGNSEDDTRIVVDDVVKLNLQKLATVAEAMARNSGDGSGSQVT [chain 1 S92M] | 25

Same assay, conditions: with HAB1*, ligand: chlorofenvinphos

Row | Variant | screen value [µM]
8 | chain 1 MPSELTPEERSELKNSIAEFHTYQLDPGSCSSLHAQRIHAPPELVWSIVRRFDKPQTHRHFIKSCSVEQNFEMRVGCTRDIIVISGLPANTSTERLDILDDERRVTGASIIGGEHRLTNYKQVTTVHRFEKENRIWTVVLESYVVDMPEGNSEDDTRIVVDDVVKLNLQKLATVAEAMARNSGDGSGSQVT [chain 1 G122Q] | 12.5

Same assay, conditions: with HAB1*, ligand: disulfoton

Row | Variant | screen value [µM]
9 | chain 1 MPSELTPEERSELKNSIAEFHTYQLDPGSCSSLHAQRIHAPPELVWSIVRRFDKPQTHRHFIKSCSVEQNFEMRVGCTRDIIVISGLPANTSTERLDILDDERRVTGASIIGGEHRLTNYKGVTTVHRFEKENRIWTVVLESYVVDVPEGNSEDDTRIVVDDVVKLNLQKLATVAEAMARNSGDGSGSQVT [chain 1 M147V] | 100

Source: publication PMC10746540
